Test [1] concerns the target recombinant human FcγRI (human) (UniProt P12314). The experiment in a line: ELISA, antibody coated on the plate, soluble FcγRI titrated (the axis is its concentration), anti-CD64 and HRP anti-mouse IgG, A450. (In general: An ELISA detects its analyte on a solid surface through an enzyme-linked reagent.)
Test [2] has as its target recombinant human CD40L (BioLegend Cat. #591706) (human) (UniProt P29965). Briefly: ELISA on coated rh CD40L; IC50 clone/IC50 5c8 x100.
Chain of UniProt P29965 (P29965 113-261 limits assumed): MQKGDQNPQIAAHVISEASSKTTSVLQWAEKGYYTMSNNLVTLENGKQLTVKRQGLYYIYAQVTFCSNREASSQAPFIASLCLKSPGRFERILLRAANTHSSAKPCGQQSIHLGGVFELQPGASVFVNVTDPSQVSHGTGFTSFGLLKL

Chain of UniProt P12314 (P12314 16-288 limits assumed): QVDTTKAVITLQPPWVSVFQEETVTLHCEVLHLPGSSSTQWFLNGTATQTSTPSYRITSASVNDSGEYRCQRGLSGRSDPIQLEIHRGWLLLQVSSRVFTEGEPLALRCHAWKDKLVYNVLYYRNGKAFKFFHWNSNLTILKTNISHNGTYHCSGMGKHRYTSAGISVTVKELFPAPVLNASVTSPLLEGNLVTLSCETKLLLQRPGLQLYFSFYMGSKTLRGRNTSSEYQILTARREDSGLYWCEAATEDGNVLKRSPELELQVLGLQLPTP

As usually defined, the EC50 (read off the curve) is the concentration at which the effect is half-maximal. Regarding anti-CD40L antibody 5c8, in test [1], the EC50 (read off the curve) was 0.2 µg/mL.
Take anti-CD40L antibody AT-1501: in test [2], the Rel. Pot. is 95%.
